Measurements published in patent US20100015654A1 (INSTITUT DE RECHERCHES CLINIQUES DE MONTREAL I R C M, published 2010).

What was measured:
mouse CD84 = molecular target: T1, mouse CD84 (mouse, UniProt Q18PI6 22-329); test: co-immunoprecipitation from IL-2-activated mouse NK cells, anti-CD84 immunoblot
T1 construct: whole, on cells; Endogenous protein in NK cell lysates
T1 sequence (looked up): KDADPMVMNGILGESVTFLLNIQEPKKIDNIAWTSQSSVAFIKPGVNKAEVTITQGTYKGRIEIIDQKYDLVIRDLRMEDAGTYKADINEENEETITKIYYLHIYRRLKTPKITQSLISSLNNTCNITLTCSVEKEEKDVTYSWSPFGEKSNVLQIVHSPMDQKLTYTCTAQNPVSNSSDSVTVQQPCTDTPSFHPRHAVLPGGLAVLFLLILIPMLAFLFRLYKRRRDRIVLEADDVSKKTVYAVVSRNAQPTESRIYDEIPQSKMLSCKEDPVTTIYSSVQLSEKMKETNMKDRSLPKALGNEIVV
Excerpt: (§1) Association of phosphotyrosine-containing proteins with SAP-related adaptors in mouse NK cells. The indicated SAP-related adaptors were immunoprecipitated from IL-2-activated mouse NK cells, resolved in 8% gels and probed by immunoblotting with anti-phosphotyrosine (P.tyr). The anti-EAT-2 MAbs used for immunoprecipitation react with both EAT-2 and ERT. Anti-CD4 MAb GK1.5 was used as control antibody. IgH: heavy chain of IgG. Efficient immunoprecipitation of the SAP-related adaptors was verified by probing parallel immunoprecipitates with anti-EAT-2/ERT and anti-SAP (data not shown). b. Association of 2B4 with SAP-related adaptors in NK cells. Immunoprecipitates of SAP family adaptors were reprobed by immunoblotting with anti-2B4 (top panels), anti-CRACC (middle panels) and anti-CD84 (bottom panels). The migration of the various SLAM-related receptors was verified by immunoblotting of total cell lysates with the specified antibodies (lane 5).
(§2) Mouse NK cells express three SLAM-related receptors, 2B4, CRACC and CD84, that have apparent molecular masses between 60 and 70 kDa (our unpublished results). To determine if the 70 kDa-tyrosine phosphorylated protein associated with SAP family adaptors was any of these SLAM-related receptors, immunoprecipitates of SAP-related adaptors were probed by immunoblotting with antibodies against each of these SLAM family members (FIG. 5b). […]

mouse CD16 = molecular target: T2, mouse CD16 (mouse, UniProt P08508 31-261); test: co-immunoprecipitation from IL-2-activated mouse NK cells (data not shown)
T2 construct: whole, on cells; Endogenous protein in NK cell lysates
T2 sequence (looked up): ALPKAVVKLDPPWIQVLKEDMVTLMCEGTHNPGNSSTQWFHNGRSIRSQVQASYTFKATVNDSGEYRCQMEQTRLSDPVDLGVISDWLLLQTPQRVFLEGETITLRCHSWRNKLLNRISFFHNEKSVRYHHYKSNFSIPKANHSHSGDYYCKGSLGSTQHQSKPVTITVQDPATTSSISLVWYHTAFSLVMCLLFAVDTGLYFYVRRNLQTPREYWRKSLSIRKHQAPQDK

mouse CRACC = molecular target: T3, mouse CRACC (mouse, UniProt Q8BHK6 23-333); test: co-immunoprecipitation from IL-2-activated mouse NK cells, anti-CRACC immunoblot
T3 construct: whole, on cells; Endogenous protein in NK cell lysates
T3 sequence (looked up): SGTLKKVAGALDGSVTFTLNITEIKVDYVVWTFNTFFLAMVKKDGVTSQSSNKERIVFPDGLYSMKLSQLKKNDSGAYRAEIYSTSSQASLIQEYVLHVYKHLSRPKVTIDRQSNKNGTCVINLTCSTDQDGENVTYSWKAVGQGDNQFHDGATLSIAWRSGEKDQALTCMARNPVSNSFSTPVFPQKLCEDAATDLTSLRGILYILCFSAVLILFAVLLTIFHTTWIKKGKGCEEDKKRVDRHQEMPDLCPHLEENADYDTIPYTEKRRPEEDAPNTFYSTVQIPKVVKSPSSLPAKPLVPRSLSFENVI
Excerpt: as §1, §2

Measured: binding result

B1: mouse SAP (other, UniProt O88890 1-126, looked up)
chain: MDAVTVYHGKISRETGEKLLLATGLDGSYLLRDSESVPGVYCLCVLYQGYIYTYRVSQTETGSWSAETAPGVHKRFFRKVKNLISAFQKPDQGIVTPLQYPVEKSSGRGPQAPTGRRDSDICLNAP
notes: Intracellular adaptor made of an SH2 domain and a short tail
no binding: all assays above
